The results in this text go back to patent publication US20230265151A1, “GIP/GLP1 CO-AGONIST COMPOUNDS” (priority 2020, published 2023).

One test addresses T1, human GIP receptor (human, UniProt P48546 22-466).
T1 construct: whole, on cells; also called hGIPR; human glucose-dependent insulinotropic polypeptide receptor
T1 sequence (looked up): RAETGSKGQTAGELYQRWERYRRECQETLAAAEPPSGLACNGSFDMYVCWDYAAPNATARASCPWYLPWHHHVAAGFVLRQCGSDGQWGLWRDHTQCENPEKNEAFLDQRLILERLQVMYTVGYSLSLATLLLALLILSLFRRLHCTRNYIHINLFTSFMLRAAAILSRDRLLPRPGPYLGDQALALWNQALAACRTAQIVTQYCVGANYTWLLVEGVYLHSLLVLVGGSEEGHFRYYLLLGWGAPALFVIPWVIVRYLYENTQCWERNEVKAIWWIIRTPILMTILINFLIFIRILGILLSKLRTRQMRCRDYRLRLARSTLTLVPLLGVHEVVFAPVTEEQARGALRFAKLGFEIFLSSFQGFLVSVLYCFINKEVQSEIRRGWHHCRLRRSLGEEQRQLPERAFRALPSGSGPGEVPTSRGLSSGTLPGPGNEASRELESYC
In words: SPA competition vs [125I]-GIP, hGIPR membranes.

The target in a further test is T2, human glucagon receptor (human, UniProt P47871 26-477).
T2 construct: whole, on cells; also called hGCGR; hGcgR
The experiment in a line: SPA competition vs [125I]-Gcg, hGcgR membranes. On the procedure: The binding buffer contains 25 mM 4-(2-hydroxyethyl)-1-piperazineethanesulfonic acid (HEPES), pH 7.4, 2.5 mM CaCl₂, 1 mM MgCh, 0.1% (w/v) bacitracin (Research Products), 0.003% (w/v) Polyoxyethylenesorbitan monolaurate (TWEEN®-20), and Roche Complete™ Protease Inhibitors without EDTA. […] Plates are sealed and mixed on a plate shaker (setting 6) for 1 minute and read with a PerkinElmer Trilux MicroBeta® scintillation counter after 12 hours of incubation/settling time at room temperature.
Data are analyzed using four-parameter (curve maximum, curve minimum, IC₅₀, Hill slope) nonlinear regression routines (Genedata Screener, version 12.0.4, Genedata AG, Basal, Switzerland). […] Values for Kᵢ are reported as the geometric mean, with error expressed as the standard error of the mean (SEM) and n is equal to the number of independent replicates (determined in assays performed on different days).

Another test has as its target T3, human GLP-1 receptor (human, UniProt P43220 24-463).
T3 construct: whole, on cells; also called hGLP-1R; human glucagon-like peptide-1 receptor
In words: SPA competition vs [125I]-GLP-1, hGLP-1R membranes. In short, it runs like this: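 Kᵢ values are geometric means (SEM) over replicates run on separate days, derived from IC₅₀ of four-parameter curve fits. Buffer: HEPES 25 mM pH 7.4 with CaCl₂ 2.5 mM, MgCl₂ 1 mM, bacitracin 0.1%, TWEEN-20 0.003%, EDTA-free protease inhibitors.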

T2 sequence (P47871 26-477): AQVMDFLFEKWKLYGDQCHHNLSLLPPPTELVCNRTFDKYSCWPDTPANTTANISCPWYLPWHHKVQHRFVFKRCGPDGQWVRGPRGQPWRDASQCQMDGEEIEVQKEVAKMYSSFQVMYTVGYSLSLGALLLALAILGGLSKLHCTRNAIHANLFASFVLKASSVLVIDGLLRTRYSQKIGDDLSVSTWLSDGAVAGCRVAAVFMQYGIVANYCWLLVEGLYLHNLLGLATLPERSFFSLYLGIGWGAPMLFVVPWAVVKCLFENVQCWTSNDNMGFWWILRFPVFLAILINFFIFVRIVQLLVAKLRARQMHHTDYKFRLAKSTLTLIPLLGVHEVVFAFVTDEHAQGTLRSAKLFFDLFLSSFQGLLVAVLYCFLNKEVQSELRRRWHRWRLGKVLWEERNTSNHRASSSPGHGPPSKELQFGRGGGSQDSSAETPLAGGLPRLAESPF

B1: Y-Aib-EGT-αMeF(2F)-TSDK((2-[2-(2-Amino-ethoxy)-ethoxy]-acetyl)2-(γ-Glu)-CO-(CH2)10-CH3)-Aib-I-αMeL-LD-Orn-K((2-[2-(2-Amino-ethoxy)-ethoxy]-acetyl)2-(γ-Glu)-CO-( … (peptide)
peptide: YXEGTXTSDKXIXLDXKAQXXFIXXLIEGGPSSGAPPPS
modifications: Aib2, αMeF(2F)6, K10(Z1), Aib11, αMeL13, Orn16, K17(Z1), Aib20, Orn21, D-Glu24, αMeY25, C-term NH2; Z1=AEEA2-(γ-Glu)-CO-(CH2)10-CH3
Usually Ki stands for the dissociation constant of the complex between target and ligand, obtained from inhibition or displacement. A higher Ki goes with a looser hold on the target. With B1, the Ki in the test with human GIP receptor was found to be 0.0214 nM; with human glucagon receptor, 58.4 nM; with human GLP-1 receptor it was 0.167 nM.

B2: Y-Aib-EGT-αMeF(2F)-TSD-4Pal-Aib-I-αMeL-LD-Orn-K((2-[2-(2-Amino-ethoxy)-ethoxy]-acetyl)3-(γ-Glu)-CO-(CH2)10-CH3)AQ-Aib-EFI-(D-Glu)-αMeY-LIK((2-[2-(2-Amino-ethoxy … (peptide)
peptide: YXEGTXTSDXXIXLDXKAQXEFIXXLIKGGPSSGAPPPS
modifications: Aib2, αMeF(2F)6, 4Pal10, Aib11, αMeL13, Orn16, K17(Z1), Aib20, D-Glu24, αMeY25, K28(Z1), C-term NH2; Z1=AEEA3-(γ-Glu)-CO-(CH2)10-CH3
B2: the values for the inhibition constant Ki with human GIP receptor, in the test with human glucagon receptor and with human GLP-1 receptor were 0.0207 nM, 85.9 nM and 0.275 nM, respectively.

B3: Y-Aib-EGT-αMeF(2F)-TSD-4Pal-Aib-I-αMeL-LD-Orn-QAQ-Aib-Orn-FIK((2-[2-(2-Amino-ethoxy)-ethoxy]-acetyl)2-(γ-Glu)-(11-(4-carboxyphenoxy)undecanoyl)-αMeY-LIK((2-[2-( … (peptide)
peptide: YXEGTXTSDXXIXLDXQAQXXFIKXLIKGGPSSGAPPPS
modifications: Aib2, αMeF(2F)6, 4Pal10, Aib11, αMeL13, Orn16, Aib20, Orn21, K24(Z1), αMeY25, K28(Z1), C-term NH2; Z1=AEEA2-(γ-Glu)-(11-(4-carboxyphenoxy)undecanoyl)
For B3, the results for the inhibition constant (Ki) with human GIP receptor, with human glucagon receptor and in the test with human GLP-1 receptor were 0.0507 nM, 130 nM and 0.164 nM, respectively.

B4: Y-Aib-EGT-αMeF(2F)-TSD-4Pal-Aib-I-αMeL-LD-Orn-K((2-[2-(2-Amino-ethoxy)-ethoxy]-acetyl)3-(γ-Glu)-CO-(CH2)10-CH3)AQ-Aib-K((2-[2-(2-Amino-ethoxy)-ethoxy]-acetyl)3- … (peptide)
peptide: YXEGTXTSDXXIXLDXKAQXKFIXXLIXGGPSSGAPPPS
modifications: Aib2, αMeF(2F)6, 4Pal10, Aib11, αMeL13, Orn16, K17(Z1), Aib20, K21(Z1), D-Glu24, αMeY25, Orn28, C-term NH2; Z1=AEEA3-(γ-Glu)-CO-(CH2)10-CH3
Regarding B4, the Ki in the test with human GIP receptor was 0.0175 nM; in the test with human glucagon receptor, 28.3 nM; in the test with human GLP-1 receptor, 0.187 nM.

B5: Y-Aib-EGT-αMeF(2F)-TSD-4Pal-Aib-I-αMeL-LD-Orn-QAQ-Aib-Orn-FIK((2-[2-(2-Amino-ethoxy)-ethoxy]-acetyl)2-(γ-Glu)-(10-(4-carboxyphenoxy)decanoyl))-αMeY-LIK((2-[2-(2 … (peptide)
peptide: YXEGTXTSDXXIXLDXQAQXXFIKXLIKGGPSSGAPPPS
modifications: Aib2, αMeF(2F)6, 4Pal10, Aib11, αMeL13, Orn16, Aib20, Orn21, K24(Z1), αMeY25, K28(Z1), C-term NH2; Z1=AEEA2-(γ-Glu)-(10-(4-carboxyphenoxy)decanoyl)
Take B5: the Ki with human GIP receptor was determined as 0.0312 nM; with human glucagon receptor it was 131 nM; with human GLP-1 receptor, 0.373 nM.

B6: Y-Aib-EGT-αMeF(2F)-TSD-4Pal-Aib-I-αMeL-LD-Orn-K((2-[2-(2-Amino-ethoxy)-ethoxy]-acetyl)2-(γ-Glu)-CO-(CH2)10-CH3)AQ-Aib-Orn-FI-(D-Glu)-αMeY-LIK((2-[2-(2-Amino-eth … (peptide)
peptide: YXEGTXTSDXXIXLDXKAQXXFIXXLIKGGPSSGAPPPS
modifications: Aib2, αMeF(2F)6, 4Pal10, Aib11, αMeL13, Orn16, K17(Z1), Aib20, Orn21, D-Glu24, αMeY25, K28(Z1), C-term NH2; Z1=AEEA2-(γ-Glu)-CO-(CH2)10-CH3
For the molecule B6, the Ki with human GIP receptor stood at 0.0229 nM; in the test with human glucagon receptor, 33.7 nM; with human GLP-1 receptor, 0.194 nM.

B7: Y-Aib-EGT-αMeF(2F)-TSDK((2-[2-(2-Amino-ethoxy)-ethoxy]-acetyl)3-(γ-Glu)-CO-(CH2)10-CH3)-Aib-I-αMeL-LD-Orn-K((2-[2-(2-Amino-ethoxy)-ethoxy]-acetyl)3-(γ-Glu)-CO-( … (peptide)
peptide: YXEGTXTSDKXIXLDXKAQXXFIXXLIEGGPSSGAPPPS
modifications: Aib2, αMeF(2F)6, K10(Z1), Aib11, αMeL13, Orn16, K17(Z1), Aib20, Orn21, D-Glu24, αMeY25, C-term NH2; Z1=AEEA3-(γ-Glu)-CO-(CH2)10-CH3
For B7, the Ki was 0.0134 nM with human GIP receptor, 356 nM with human glucagon receptor and 0.134 nM in the test with human GLP-1 receptor.

B8: Y-Aib-EGT-αMeF(2F)-TSD-4Pal-Aib-G-αMeL-LD-Orn-QAQ-Aib-Orn-FIK((2-[2-(2-Amino-ethoxy)-ethoxy]-acetyl)2-(γ-Glu)-CO-(CH2)12-CO2H)-αMeY-LIK((2-[2-(2-Amino-ethoxy)-e … (peptide)
peptide: YXEGTXTSDXXGXLDXQAQXXFIKXLIKGGPSSGAPPPS
modifications: Aib2, αMeF(2F)6, 4Pal10, Aib11, αMeL13, Orn16, Aib20, Orn21, K24(Z1), αMeY25, K28(Z1), C-term NH2; Z1=AEEA2-(γ-Glu)-CO-(CH2)12-CO2H
notes: G at position 12
B8: the Ki with human GIP receptor stood at 0.0539 nM; with human glucagon receptor, 592 nM; in the test with human GLP-1 receptor, 0.386 nM.

B9: Y-Aib-EGT-αMeF(2F)-TSD-4Pal-Aib-I-αMeL-LD-Orn-K((2-[2-(2-Amino-ethoxy)-ethoxy]-acetyl)2-(γ-Glu)-CO-(CH2)10-CH3)AQ-Aib-Orn-FI-(D-Glu)-αMeY-LIEGGPSSGAPPPSK((2-[2- … (peptide)
peptide: YXEGTXTSDXXIXLDXKAQXXFIXXLIEGGPSSGAPPPSK
modifications: Aib2, αMeF(2F)6, 4Pal10, Aib11, αMeL13, Orn16, K17(Z1), Aib20, Orn21, D-Glu24, αMeY25, K40(Z1), C-term NH2; Z1=AEEA2-(γ-Glu)-CO-(CH2)10-CH3
Regarding B9, the inhibition constant Ki in the test with human GIP receptor was determined as 0.0174 nM; with human glucagon receptor, 3.59 nM; with human GLP-1 receptor, 0.0684 nM.

B10: Y-Aib-EGT-αMeF(2F)-TSD-4Pal-Aib-I-αMeL-LD-Orn-K((2-[2-(2-Amino-ethoxy)-ethoxy]-acetyl)3-(γ … (peptide)
peptide: YXEGTXTSDXXIXLDXKAQXXFIXXLIEGGPSSGAPPPSK
modifications: Aib2, αMeF(2F)6, 4Pal10, Aib11, αMeL13, Orn16, K17(Z1), Aib20, Orn21, D-Glu24, αMeY25, K40(Z1), C-term NH2; Z1=AEEA3-(γ-Glu)-CO-(CH2)10-CH3
On to B10, for which the results for the inhibition constant (Ki) in the test with human GIP receptor, with human glucagon receptor and in the test with human GLP-1 receptor were 0.0091 nM, 14.4 nM and 0.122 nM, respectively.

B11: Y-Aib-EGT-αMeF(2F)-TSD-4Pal-Aib-I-αMeL-LD-Orn-K((2-[2-(2-Amino-ethoxy)-ethoxy]-acetyl)3-(γ-Glu)-CO-(CH2)10-CH3)AQ-Aib-EFI-(D-Glu)-αMeY-LIEGGPSSGAPPPSK((2-[2-(2- … (peptide)
peptide: YXEGTXTSDXXIXLDXKAQXEFIXXLIEGGPSSGAPPPSK
modifications: Aib2, αMeF(2F)6, 4Pal10, Aib11, αMeL13, Orn16, K17(Z1), Aib20, D-Glu24, αMeY25, K40(Z1), C-term NH2; Z1=AEEA3-(γ-Glu)-CO-(CH2)10-CH3
Regarding B11, the Ki in the test with human GIP receptor is 0.0206 nM; in the test with human glucagon receptor, 16 nM; with human GLP-1 receptor, 0.219 nM.
